Columns and labels:
[1] = test system: Staphylococcus aureus ATCC 29213; assay: MIC broth microdilution; assay type: cell-based; settings: Staphylococcus aureus ATCC 29213, Gram +; MHB, 35° C., 24 hours
Method: (§1) Briefly, the MIC was determined by microbroth dilution assay in a 96 well plate. 4-5 colonies of each bacterium tested were added to 5 ml of MHB, placed in a 35° C. shaker until the OD 600 nm reached 0.08-0.10. The inoculum was diluted 1:100 and 50 microliters were added to each well which contained 50 microliters of serial two fold dilutions of Lento, vancomycin or ciprofloxacin. Each concentration of antibiotic or Lento was tested in duplicate. The plate was placed at 35° C. overnight. MICs were determined after 24 hours incubation and defined by the well containing the lowest amount of antibiotic with no visible growth.

[2] = test system: Streptococcus pneumoniae (TCRSP) ATCC 700902; assay: MIC broth microdilution; assay type: cell-based; settings: Streptococcus pneumoniae (TCRSP) ATCC 700902, Gram +; MHB, 35° C., 24 hours
Method: as §1

[3] = test system: Staphylococcus epidermidis ATCC 12228; assay: MIC broth microdilution; assay type: cell-based; settings: Staphylococcus epidermidis ATCC 12228, Gram +; MHB, 35° C., 24 hours
Method: as §1

[4] = test system: Bacillus cereus ATCC 4342; assay: MIC broth microdilution; assay type: cell-based
Method: as §1

[5] = test system: Micrococcus luteus ATCC 9341; assay: MIC broth microdilution; assay type: cell-based
Method: as §1

[6] = test system: Staphylococcus aureus ATCC 29737; assay: MIC broth microdilution; assay type: cell-based
Method: as §1

[7] = test system: Streptococcus pneumoniae (PSRSP) ATCC 700671; assay: MIC broth microdilution; assay type: cell-based; settings: Streptococcus pneumoniae (PSRSP) ATCC 700671, Gram +; MHB, 35° C., 24 hours
Method: as §1

[8] = test system: Streptococcus pneumoniae ATCC 700676; assay: MIC broth microdilution; assay type: cell-based; settings: Streptococcus pneumoniae ATCC 700676, Gram +; MHB, 35° C., 24 hours
Method: as §1

[9] = test system: Enterococcus faecalis (VRE) ATCC 51299; assay: MIC broth microdilution; assay type: cell-based
Method: as §1

[10] = test system: Corynebacterium jeikeium ATCC 43216; assay: MIC broth microdilution; assay type: cell-based; settings: Corynebacterium jeikeium ATCC 43216, Gram +; MHB, 35° C., 24 hours
Method: as §1

[11] = test system: Shigella dysenteriae ATCC 11835; assay: MIC broth microdilution; assay type: cell-based; settings: Shigella dysenteriae ATCC 11835, Gram −; MHB, 35° C., 24 hours
Method: as §1

[12] = test system: Corynebacterium jeikeium ATCC 43734; assay: MIC broth microdilution; assay type: cell-based; settings: Corynebacterium jeikeium ATCC 43734, Gram +; MHB, 35° C., 24 hours
Method: as §1

[13] = test system: Streptococcus pneumoniae ATCC 49619; assay: MIC broth microdilution; assay type: cell-based; settings: Streptococcus pneumoniae ATCC 49619, Gram +; MHB, 35° C., 24 hours
Method: as §1

[14] = test system: Enterococcus faecium ATCC 51559; assay: MIC broth microdilution; assay type: cell-based
Method: as §1

[15] = Thermostability by Differential Scanning calorimetry (DSC); assay type: physicochemical
Method: Differential Scanning calorimetry (DSC) was used to determine temperature stability of the Lento protein at pH 2.5, 4.0 and 7.0. Purified Lento in a concentration of about 2 mg/ml was dialysed over night at 4° C. against appropriate buffer and run on a VP-DSC instrument (MicroCal) with a constant scan rate of 1.5° C./min from 20 to 90° C. Data-handling was performed using the MicroCal Origin software (version 4.10), and denaturation temperature was defined as temperature at the apex of the enthalpy peak. […] In 10 mM sodium acetate, 50 mM NaCl, pH 4.0, Lento denatured at 69° C., and in 10 mM sodium phosphate, 50 mM NaCl, pH 7.0 the denaturation temperature was 60° C.

[16] = test system: Bacillus cereus ATCC 4342; assay: MBC determination; assay type: cell-based; settings: concentration that kills 99.9%
Method: Minimal inhibitory concentrations (MIC) and minimal bactericidal concentrations (MBC) were determined by broth microdilution in MHB as described by the NCCLS (National Committee for Clinical Laboratory Standards, in: Methods for Determining Bactericidal Activity of Antimicrobial Agents; Approved Guideline. National Committee for Clinical Laboratory Standards (M26-A), Vol. 19, 1999).
Briefly, the MIC was determined by microbroth dilution assay in a 96 well plate. 4-5 colonies of each bacterium tested were added to 5 ml of MHB, placed in a 35° C. shaker until the OD 600 nm reached 0.08-0.10. […] MICs were determined after 24 hours incubation and defined by the well containing the lowest amount of antibiotic with no visible growth.
To determine the MBC, 10 microliters from each well with no growth was plated in duplicate and allowed to grow overnight on Mueller-Hinton agar (Difco Catalog number 225250, Becton Dickinson and Company, Sparks, Md., US; 2.0 g beef extract powder, 17.5 g acid digest of casein, 1.5 g starch, 17 g agar—per 1000 ml of water). The MBC is based on the inoculum concentration, which was determined by plating in duplicate 50 microliters of 10^−2, 10^−3, and 10^−4 of the inoculum used for MICs. MBCs were determined as described by the NCCLS guidelines (cited above). […]

[17] = test system: gram-negative bacterial strains; assay: MIC assay, summary over gram-negative strains; assay type: cell-based; settings: gram-negative bacterial strains of Table 1
Method: as §1

[18] = test system: all bacteria tested (Table 2); assay: MBC versus MIC, bactericidal classification; assay type: cell-based; settings: all bacteria tested with the exception of E. faecium ATCC 51559
Method: To determine the MBC, 10 microliters from each well with no growth was plated in duplicate and allowed to grow overnight on Mueller-Hinton agar (Difco Catalog number 225250, Becton Dickinson and Company, Sparks, Md., US; 2.0 g beef extract powder, 17.5 g acid digest of casein, 1.5 g starch, 17 g agar—per 1000 ml of water). The MBC is based on the inoculum concentration, which was determined by plating in duplicate 50 microliters of 10^−2, 10^−3, and 10^−4 of the inoculum used for MICs. MBCs were determined as described by the NCCLS guidelines (cited above). The MBC is the concentration of the tested compound that kills 99.9% of the microorganism inoculated into the well.
Based on this definition, Lento is bactericidal against all bacteria tested with the exception of E. faecium ATCC 51559.

[19] = test system: Burkholderia cepacia ATCC 25416; assay: MIC broth microdilution; assay type: cell-based; settings: Burkholderia cepacia ATCC 25416, Gram −; MHB, 35° C., 24 hours
[20] = test system: Micrococcus luteus ATCC 9341; assay: MBC determination; assay type: cell-based; settings: concentration that kills 99.9%
Method: as §1
(§2) MBCs were determined as described by the NCCLS guidelines (cited above).

[21] = test system: Staphylococcus aureus ATCC 29737; assay: MBC determination; assay type: cell-based; settings: concentration that kills 99.9%
Method: as §1, §2

[22] = test system: Enterococcus faecalis (VRE) ATCC 51299; assay: MBC determination; assay type: cell-based; settings: concentration that kills 99.9%
Method: as §1, §2

[23] = test system: Enterococcus faecium ATCC 51559; assay: MBC determination; assay type: cell-based; settings: concentration that kills 99.9%
Method: as §1, §2

[24] = test system: gram-positive bacterial strains; assay: MIC assay, summary over gram-positive strains; assay type: cell-based; settings: a number of gram-positive strains, with the exception of certain strains of Staphylococcus
Method: as §1

B1: Lento: Bacillus licheniformis polypeptide having amino acids 1-85 of SEQ ID NO: 2, purified from ATCC 14580 fermentation broth (protein)
chain: MKNHLYEKKKRKPLTRTIKATLAVLTMSIALVGGATVPSFAWVNPGYHYQYPSEGGTWRYGFVNAGLRSEYNHPTKVHGSTVQKL
modifications: Bacillus licheniformis ATCC 14580
MIC [1]: 64 microgram/ml | MIC [2]: 4-8 microgram/ml | MIC [3]: 128 microgram/ml | MIC ([4]; Bacillus cereus ATCC 4342, Gram +, MHB, 35° C., 24 hours): 0.5-1 microgram/ml | MIC ([4]; Table 2 (MBC results), Bacillus cereus ATCC 4342): 1 microgram/ml | MBC ([5]; Micrococcus luteus ATCC 9341, Gram +, MHB, 35° C., 24 hours): 8 microgram/ml | MBC ([5]; Table 2 (MBC results), Micrococcus luteus ATCC 9341): 8 microgram/ml | MBC ([6]; Staphylococcus aureus ATCC 29737, Gram +, MHB, 35° C., 24 hours): 8-32 microgram/ml | MBC ([6]; Table 2 (MBC results), Staphylococcus aureus ATCC 29737): 32 microgram/ml | MIC [7]: 2 microgram/ml | MIC [8]: 4 microgram/ml | MIC ([9]; Enterococcus faecalis (VRE) ATCC 51299, Gram +, MHB, 35° C., 24 hours): 8 microgram/ml | MIC ([9]; Table 2 (MBC results), Enterococcus faecalis (VRE) ATCC 51299): 64 microgram/ml | MIC [10]: 0.125 microgram/ml | MIC [11]: >256 microgram/ml | MIC [12]: 2 microgram/ml | MIC [13]: 1-2 microgram/ml | MIC ([14]; Enterococcus faecium ATCC 51559, Gram +, MHB, 35° C., 24 hours): 4 microgram/ml | MIC ([14]; Table 2 (MBC results), Enterococcus faecium ATCC 51559): 4 microgram/ml | denaturation temperature (DSC) ([15]; 10 mM citric acid, 50 mM sodium chloride, pH 2.5): 55 °C | denaturation temperature (DSC) ([15]; 10 mM sodium acetate, 50 mM NaCl, pH 4.0): 69 °C | denaturation temperature (DSC) ([15]; 10 mM sodium phosphate, 50 mM NaCl, pH 7.0): 60 °C | MBC [16]: 1 microgram/ml | antimicrobial effect on gram-negative bacterial strains [17]: uncertain if any antimicrobial effect | bactericidal (MBC within four fold of the MIC) [18]: bactericidal | MIC [19]: >256 microgram/ml | MBC [20]: 8 microgram/ml | MBC [21]: 32 microgram/ml | MBC [22]: 64 microgram/ml | MBC [23]: >64 microgram/ml | antimicrobial effect on gram-positive bacterial strains [24]: pronounced antimicrobial effect

Source: patent publication US8092810B2, “Use of polypeptides having antimicrobial activity” (Novozymes A/S, priority 2006, dated 2012)
